Assay results: patent US20250027068A1
Residue numbers refer to the chain shown, from its start.

B1: VRT-4 (Fc fusion)
chain: SQTEDSESLQRLRDIEDFQAEKKMQNVVYTKWLDGVDVKDHDFRKIVDGNIAYYATPLLNGRGFYDINKDFNRDSDKCAAAVAANMFHYWLDINRDNVDRFLRQNPEKHGIIELPDGQLKLSDFLNTYESDHGYRDKSKLFDFISNNFNGPVWTDKLLDNYINGYAYNYKYGRTIEDPTKNTSKINFFKEVFNEKILTNNHSIRNQNEFSVLLSEALYTGKAIGLSYGPAGLRHSLGHIISVWGADLDADGNVVAIYVTDSDDKKLTIGDERVGLKRYKISTDDENRLRLTAYEETHNTGGQIRGLWTLDTGKYAWADYFDKTEQTGTDQAEQDKTHTCPPCPAPEAAGAPSVFLFPPKPKDTLMISRTPEVTCVVVDVSHEDPEVKFNWYVDGVEVHNAKTKPREEQQNSTYRVVSVLTVLHQDWLNGKEYKCKVSNKALKAPIEKTISKAKGQPREPQVYTLPPSRDELTKNQVSLTCLVKGFYPSDIAVEWESNGQPENNYKTTPPVLDSDGSFFLYSKLTVDKSRWQQGNVFSCSVMHEALHNHYTQKSLSLSPG
B2: VRT-7 (Fc fusion)
chain: VTSVWTKGVTPPTNFTYGEDVLHAPYVANQGWYDITKTFNGKDDLLCGAATAGNMLHWWFDQNKEQIENYLKKHPEKQKINFNGEQMFDVKEAIDTKDSQLDSKLFEYFKEKAFPYLSTKHLGVFPDHVIDMFINGYRLSLTNHGPTPVKRGSKDPRGGIFDAVFTRGDQSKLLTNRHDFKEKTLKEISDLIKQELTEGKALGISHTYANVRINHVINLWGADFDAEGNLEAIYVTDSDSNASIGMKKYFVGVNSNGKVAISAKEIEEDNIGAQVLGLFTLSTGQDIWNQTNDKTHTCPPCPAPEAAGAPSVFLFPPKPKDTLMISRTPEVTCVVVDVSHEDPEVKFNWYVDGVEVHNAKTKPREEQQNSTYRVVSVLTVLHQDWLNGKEYKCKVSNKALKAPIEKTISKAKGQPREPQVYTLPPSRDELTKNQVSLTCLVKGFYPSDIAVEWESNGQPENNYKTTPPVLDSDGSFFLYSKLTVDKSRWQQGNVFSCSVMHEALHNHYTQKSLSLSPG
B3: VRT-5 (Fc fusion)
chain: VTSVWTKGVTPPANFTQGEDVFHAPYKANQGWYDITKTFNGKDDLLCGAATAGNMLHWWFDQNKDQIEAYLKEHPEKQKINFNGEQMFDVKEAIDTKDDQTNSKLFEYFKEKAFPYLSTKHLGVFPDHVLDMFINGYRLSLTNHGPTPVKEGSKDPRGGIFDAVFTRGDQSKLLTSRHDFKEKTLKEISDLIKQELTEGKALALSHTYANVRINHVINLWGADFDSNGNLEAIYVTDSDSNASIGMKKYFVGVNSAGKVAISAKEIEDDNIGAQVLGLFTLSTGQDIWNQTNDKTHTCPPCPAPEAAGAPSVFLFPPKPKDTLMISRTPEVTCVVVDVSHEDPEVKFNWYVDGVEVHNAKTKPREEQQNSTYRVVSVLTVLHQDWLNGKEYKCKVSNKALKAPIEKTISKAKGQPREPQVYTLPPSRDELTKNQVSLTCLVKGFYPSDIAVEWESNGQPENNYKTTPPVLDSDGSFFLYSKLTVDKSRWQQGNVFSCSVMHEALHNHYTQKSLSLSPG
B4: VRT-1 (Fc fusion)
chain: VTSVWTKGVTPPANFTQGEDVFHAPYVANQGWYDITKTFNGKDDLLCGAATAGNMLHWWFDQNKDQIKRYLEEHPEKQKINFNGEQMFDVKEAIDTKNHQLDSKLFEYFKEKAFPYLSTKHLGVFPDHVIDMFINGYRLSLTNHGPTPVKEGSKDPRGGIFDAVFTRGDQSKLLTSRHDFKEKNLKEISDLIKKELTEGKALGLSHTYANVRINHVINLWGADFDSNGNLKAIYVTDSDSNASIGMKKYFVGVNSAGKVAISAKEIKEDNIGAQVLGLFTLSTGQDSWNQTNDKTHTCPPCPAPEAAGAPSVFLFPPKPKDTLMISRTPEVTCVVVDVSHEDPEVKFNWYVDGVEVHNAKTKPREEQQNSTYRVVSVLTVLHQDWLNGKEYKCKVSNKALKAPIEKTISKAKGQPREPQVYTLPPSRDELTKNQVSLTCLVKGFYPSDIAVEWESNGQPENNYKTTPPVLDSDGSFFLYSKLTVDKSRWQQGNVFSCSVMHEALHNHYTQKSLSLSPG
B5: VRT-6 (Fc fusion)
chain: B3 chain with K27V, A69R, D99S, N102D, A203G, N227E, E231K, E267K, D268E
B6: VRT-2 (Fc fusion)
chain: VTSVWTKGVTPPAKFTQGEDVFHAPYVANQGWYDITKTFNGKDDLLCGAATAGNMLHWWFDQNKEKIEAYLKKHPDKQKIMFGDQELLDVRKVINTKGDQTNSELFNYFRDKAFPGLSARRIGVMPDLVLDMFINGYYLNVYKTQTTDVNRTYQEKDRRGGIFDAVFTRGDQSKLLTSRHDFKEKNLKEISDLIKKELTEGKALGLSHTYANVRINHVINLWGADFDSNGNLKAIYVTDSDSNASIGMKKYFVGVNSAGKVAISAKEIKEDNIGAQVLGLFTLSTGQDSWNQTNDKTHTCPPCPAPEAAGAPSVFLFPPKPKDTLMISRTPEVTCVVVDVSHEDPEVKFNWYVDGVEVHNAKTKPREEQQNSTYRVVSVLTVLHQDWLNGKEYKCKVSNKALKAPIEKTISKAKGQPREPQVYTLPPSRDELTKNQVSLTCLVKGFYPSDIAVEWESNGQPENNYKTTPPVLDSDGSFFLYSKLTVDKSRWQQGNVFSCSVMHEALHNHYTQKSLSLSPG
B7: VRT-8 (Fc fusion)
chain: VTSVWTKGVTPPADFTQGEDVFHAPYVANQGWYDITKTFNGKDDLLCGAATAGNMLHWWFDQNKEYIEAYLKKHPEKQKIMFGDQELLDVRKAINTKGSQKNSELFNYFRDKAFPNLSARRLGVMPDLVLDMFINGYYLNVTKTQTTDVNRTYQEKDKRGGIFDAVFTRGDQSKLLTSRHDFKEKGLKEISDLIKQELTEGKALGLSHTYANVRINHVINLWGADFDSDGNLKAIYVTDSDSNASIGMKKYFVGVNSAGKVAISAKEIKEDNIGAQVLGLFTLSTGQDIWNQTNDKTHTCPPCPAPEAAGAPSVFLFPPKPKDTLMISRTPEVTCVVVDVSHEDPEVKFNWYVDGVEVHNAKTKPREEQQNSTYRVVSVLTVLHQDWLNGKEYKCKVSNKALKAPIEKTISKAKGQPREPQVYTLPPSRDELTKNQVSLTCLVKGFYPSDIAVEWESNGQPENNYKTTPPVLDSDGSFFLYSKLTVDKSRWQQGNVFSCSVMHEALHNHYTQKSLSLSPG
B8: VRT-10 (Fc fusion)
chain: TITSVWTKGVTPPTPEDFRYNNEDVLHAPYVANQGWYDITKTFDGKDNLLCGAATAGNMLHWWFDQNKEEIERYLKKHPEKQKIIFNNQELFDVKAAIDTKDSQTNSKLFNYFRDKAFPNLSARQLGVMPDLVLDMFINGYYLNLGKTQSTDVNRPYQDKDKRGGIFDAVFTRGDQTTLLTARHDLKNKGLNEISDLIKQELTEGKALALSHTYANVRINHVINLWGADFDAEGNLIAIYVTDSDANASIGMKKYFVGVNANGKVAISAKKIEGDNIGAQVLGLFTLSTGQDIWQKLSDKTHTCPPCPAPEAAGAPSVFLFPPKPKDTLMISRTPEVTCVVVDVSHEDPEVKFNWYVDGVEVHNAKTKPREEQQNSTYRVVSVLTVLHQDWLNGKEYKCKVSNKALKAPIEKTISKAKGQPREPQVYTLPPSRDELTKNQVSLTCLVKGFYPSDIAVEWESNGQPENNYKTTPPVLDSDGSFFLYSKLTVDKSRWQQGNVFSCSVMHEALHNHYTQKSLSLSPG
B9: VRT-3 (Fc fusion)
chain: QITSVWTKGVTPLTPEQFRYNNEDVIHAPYLAHQGWYDITKAFDGKDNLLCGAATAGNMLHWWFDQNKTEIEAYLSKHPEKQKIIFNNQELFDLKAAIDTKDSQTNSQLFNYFRDKAFPNLSARQLGVMPDLVLDMFINGYYLNVFKTQSTDVNRPYQDKDKRGGIFDAVFTRGDQTTLLTARHDLKNKGLNDISTIIKQELTEGRALALSHTYANVSISHVINLWGADFNAEGNLEAIYVTDSDANASIGMKKYFVGINAHGHVAISAKKIEGENIGAQVLGLFTLSSGKDIWQKLSDKTHTCPPCPAPEAAGAPSVFLFPPKPKDTLMISRTPEVTCVVVDVSHEDPEVKFNWYVDGVEVHNAKTKPREEQQNSTYRVVSVLTVLHQDWLNGKEYKCKVSNKALKAPIEKTISKAKGQPREPQVYTLPPSRDELTKNQVSLTCLVKGFYPSDIAVEWESNGQPENNYKTTPPVLDSDGSFFLYSKLTVDKSRWQQGNVFSCSVMHEALHNHYTQKSLSLSPG
B10: VRT-12 (Fc fusion)
chain: B9 chain with H33N, A42T, D44N, S76K, D193E, I197L, R206K, A246S, I259V, H264K
B11: VRT-11 (Fc fusion)
chain: B9 chain with L13P, H33N, A42T, D44N, G190T, I197L, R206K, I259V, H264K

Target: pooled human IgG (human)
Assay: cell-based or functional assay

| Binder | Enzyme Activity Endpoint Assay: Fab′2 [ng/µL] | Enzyme Activity Endpoint Assay: Fc [ng/µL] | Enzyme Activity Endpoint Assay: IgG [ng/µL] | Enzyme Activity Endpoint Assay: scIgG [ng/µL] |
| --- | --- | --- | --- | --- |
| B1 | 0 | 29 | 990 | 24 |
| B2 | 61 | 258 | 178 | 249 |
| B3 | 137 | 294 | 89 | 151 |
| B4 | 175 | 334 | 197 | 137 |
| B5 | 132 | 304 | 78 | 172 |
| B6 | 97 | 238 | 247 | 100 |
| B7 | 0 | 126 | 652 | 125 |
| B8 | 56 | 266 | 71 | 169 |
| B9 | 0 | 99 | 808 | 50 |
| B10 | 0 | 101 | 747 | 64 |
| B11 | 0 | 90 | 829 | 38 |
